Experimental data from the domain aggregation screens of Martell et al. (2025).

Assay: soluble fraction after stress (log2 fold change); higher = more stays soluble; pooled small domains, quantitative proteomics
Details: stress: 50 degC
Procedure, shortened: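 Pooled custom libraries of small protein domains were each held under stress at 50°C. The read-out, high-throughput quantitative proteomics, tracked how much of each protein stayed soluble. This is reported as a base-two log fold change used to indicate aggregation propensity. Higher values mean more protein remains in solution.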

Sequence: HMTENQKNIDLIKIVSLLVHAAKIDENYTNKEKELIINFINNFSKENKQNIKSSEILEEAEKYEK
- soluble fraction (log2): 0.0572

Sequence: HMTEPKRIVDHWQPSDDVYDILRMSHIDLDFARSLLPEFIVYWKDSSQTHTSWNSKFLQHAKYHWAKRHQL
- soluble fraction (log2): -2.08

Sequence: HMTEPLTKREKEVLLLLPRGLTAKAMASELFLTEATIKSHLAAIFRKFKVVNRTQAIAIAVESKILT
- soluble fraction (log2): -2.33

Sequence: HMTESLVITVDPALHGLRLDRGLADALPDRSRSEVQRWIKEGRVQLHGAPAKPSLKLAAGDIVTIALPEE
- soluble fraction (log2): 0.393

Sequence: HMTESSTYFEKIGTEISQFKSIPKNIDVIIIEKLIYSGIIKKVDNEENSRVYYILTRKGRYFWKRYVLS
- soluble fraction (log2): 0.0633

Sequence: HMTETFVLNLRQPIAAAPVLPGYRVARTDEQTLEVEVSKDQNLNEIFTALSALGVEVLSMRNK
- soluble fraction (log2): -0.12

Sequence: HMTFAEADAQYEVIKQQYLAGALDEEQFDEQLHRLMVLDDGGLWWAKSRENGSWHYYDPDREDWIAATP
- soluble fraction (log2): -0.355

Sequence: HMTFEAKKGYINADMSVNVRETASTSATVIITLNPNTEVKVVGEENDFYKIEYKEYKGYVAKRLISDSQVQ
- soluble fraction (log2): -0.166

Sequence: HMTFPTEAKLTGDKVFVRSGPSTQSQRLTNLAINSVVTVLAREMGDMQYPWYKVRYSDGEGWVYGQYVEAI
- soluble fraction (log2): -0.0237

Sequence: HMTFTQFAESHGVIIKSLKASDKIQRGPTVAHPKSDNGAWLWDGNRGGVMAWDGDGQWYWFK
- soluble fraction (log2): -1.95

Sequence: HMTGEERRMNTADLYRRRGMELFKRKIYVDAIDSLKVSLEYEDNATTRYYLDLATKRYQDLKIS
- soluble fraction (log2): -1.12

Sequence: HMTGETWAERSRALAAAGLIVMGQEAKNKIEDLPSLSPLIEAAAASETRLLTGQIIDELLAFV
- soluble fraction (log2): -0.288

Sequence: HMTGIELLSHREHQVYDLLTQGRTVTEIGAQLNLAPNTVSTYRARILEKTGTKNDVELALYAQRH
- soluble fraction (log2): -0.209

Sequence: HMTGKASEIAALLEQRIAAGDYPAGSKLPSERELAASFHVSRNTIRDAIALLAARKIVSTKWGAGTVVLG
- soluble fraction (log2): -0.139

Sequence: HMTGLRETIPAALDGERLDRVVALLGDVSRSRASAALEAERVTLDGEVVTLRSHRVREGEELTVAGFE
- soluble fraction (log2): 0.405

Sequence: HMTGLSAQILAKLRDNHGVLPVSDKSDPAVISNLFGVSKGNFKKAIGGLYKEGQIVIHADRIEL
- soluble fraction (log2): -0.0576

Sequence: HMTGLSFEEKDLLGNALKLLDETERRIVILHATSGLKHREIAKQLDIPLPTVLSKYTRAIKKLKKHME
- soluble fraction (log2): -0.0942

Sequence: HMTGPSYTTRRVEAAETMMEFLRTFPQAAPFIGDLYVKAQDWPLGEEIGDRLKKMLPPQLQE
- soluble fraction (log2): -0.519

Sequence: HMTGQVASMVERLAQRLKDQPQDAEGWAMLARSYSVLGRHPEALQAYEKALALRKDDANLLADYADSLA
- soluble fraction (log2): -0.087

Sequence: HMTGRHEEAIQELKRTLELHPQKPKIFLLLGVSYLRLNNLKKAVEAFNTVLLLQPKNQKALTMLKEIKKR
- soluble fraction (log2): 0.0384

Sequence: HMTGSLLVEVQGRPDADRLLGQALVDAGLTARPAGGALIEVEVRDETTPDVVRDLTVDLGLGLVRMQERH
- soluble fraction (log2): -0.702

Sequence: HMTGSLRIKHKTYYMLFSWKDESGQWRQKSESTGIPERGGKRKAQEMLNTRLEELQLQSTASL
- soluble fraction (log2): -3.75

Sequence: HMTGSLRVTSSPSGAEIYVDEIYRGYTPLTIGSLSTGRHEVRLHLSGYQDYTRTVEIESGSQSSFSVTLT
- soluble fraction (log2): 0.0152

Sequence: HMTGSTSVAQVSTPSGSLNLRAYASTSARVLLQIPEYAFVTVYNRGATWSYVSYNGVSGYVMSVYLSFGG
- soluble fraction (log2): -1.01

Sequence: HMTGTVKVNSLNVYKSASLDSEVKDTLVLNTKVTIAENGQVTDGIYVWGRLQSGEGYVQMNNLTL
- soluble fraction (log2): -0.687

Sequence: HMTHRRLELTLDAIDERLDRALTAAVPELSRMQWQRLIREGLVTVDGERARPSYRIQGGETLVALVPEV
- soluble fraction (log2): -0.234

Sequence: HMTIAEGLIFRFTEPFKPIDQYTYYIMGDNKVEQIPNFKTLEVMLAQRNQNYLSVRVIEKSQLDDILKEF
- soluble fraction (log2): -4.04

Sequence: HMTIDETKKQQVKDGLKDIPGVTVEFVGDKAVLKGAVTDANRVKIMQIVMAAKVLSDASGLTSK
- soluble fraction (log2): -0.11

Sequence: HMTIDTSNDLLNQITEATSKGPISILELKDQLNVNASDIEGELRTLIDQHLVFLKDGMLQVIPFD
- soluble fraction (log2): -0.0624

Sequence: HMTIEEMAIENINFSTQLLYKAMKYNGVNTVGDLLEKARSKKDLLTMAYIGNKEAEEIIEKLSELGITI
- soluble fraction (log2): -0.23

Sequence: HMTIFGWQQDETGKWYRNADGTFYENGWKEIDGAQYYFDENGYVTTGWLELDGKDYYFDEEGKYDSTKVR
- soluble fraction (log2): -0.46

Sequence: HMTIGPALAIGGNKVEMTQQGKIQVTNPQGKIKTLSQDEFKKQLVKNADKIEAGQDFEFKKD
- soluble fraction (log2): 0.263

Sequence: HMTIKLFPNPSTDFIRVSELSAKENYKIYTILGSEIKRGSVSNNETIDIRNLNSGVYLLKFDNGTTKKIVK
- soluble fraction (log2): -0.886

Sequence: HMTIKTAFPAEDLAKPDNFKSLLYYFGLLTIRGTKWGSTLLAIPNLTVREQLYSYLVEAYRSADL
- soluble fraction (log2): 0.291

Sequence: HMTILKEGMSGPEVERLQDALKRHGFDPGRVDGQFGPGTEAAILAFQKSEGLRADGVAGPKTQQALGLE
- soluble fraction (log2): 0.131

Sequence: HMTIRLKELRKQKGNTQAEVAKILGTNQSQYGKYENERTQLSLDNAKILSDYFGVSVPYLLGLDDNP
- soluble fraction (log2): -0.0854

Sequence: HMTISDTAYQAFLEQLGVGMVVEHKRFGEGVITGMPKGKIRITFEEGTKSFQARALAESGMLK
- soluble fraction (log2): -0.59

Sequence: HMTISIAEQIFEQLEREILSGAYPRGELLTETKLSEKLGVSRTPIREALRRLDQEHIIKMTTKGAFVLGI
- soluble fraction (log2): -2.04

Sequence: HMTITIGNSDGGYMKMGADGFEVRFSGSDGGNHYAKMYYNNDGWARLTLGSYGEEKARIDSDGMIQTR
- soluble fraction (log2): -0.113

Sequence: HMTKEAIAQKLRIARQESGLTQKDVSAKIGRPQQTIASWEVGRSQPDADTLYSLLLLYKVSPNTFFEYD
- soluble fraction (log2): -0.352

Sequence: HMTKEEIVVNWLPRYTKRNLEDFGEYILLTNFNKYVEIFAEKFNVPILGRDANMISASAEGITIIN
- soluble fraction (log2): -0.191

Sequence: HMTKEEREKREKYEKLMKKAEELTAAKNHREVINVLGQAKAYATAAQLKEIEEKIKAATSEMNK
- soluble fraction (log2): 0.136

Sequence: HMTKEGVNISITADGVQLSTESPNRVSIFNVNGTKVWEGIAPANVSLQKGVYILQTANGNTKFV
- soluble fraction (log2): 0.265

Sequence: HMTKLLITNYERNVLINSYLLKNTPELDDIRRLLVHNKHISENDVSTEMARRIKKHKADWLRVT
- soluble fraction (log2): -2.71

Sequence: HMTKLTPLEVNLYAKKLANDPEFGSKHIEPGESFSQAEERLRVQLSQQEYVQKYSKYLKKLKASA
- soluble fraction (log2): 0.0851

Sequence: HMTKPAEVRIDELMNAAQTLFLAKGVEATTISEIIASVGVAKGTFYHYFESKQHIVEALKKRYID
- soluble fraction (log2): -1.49

Sequence: HMTKQNVVPLMYRMIDTLEQFIKADVPFNIETRLARVERLRETMVSSSVTTSEKFRQVLEAYTIETD
- soluble fraction (log2): -0.924

Sequence: HMTKSEWLRESREHLGLSQTDLRNLLNTALNRSYDKSRISRWENSKENIPAEVVKQIESLIATR
- soluble fraction (log2): 0.123

Sequence: HMTKTRTEILEYLKQNWSVTVSASDIKKHLEEKEIKANTTTIYRYLDKLLAEHVIIKYADAGSERAVYQYS
- soluble fraction (log2): -2.31

Sequence: HMTKVIEFLVSDEEHGVRADKAFVSHNQKLSRSYFKKLILNGNLYINNKVNLDPSYKLIKGSTVRIILPE
- soluble fraction (log2): -2.07

Sequence: HMTKVKIDRLFSIVQMLVNRKSVTAKELADYFNVSVRTIYRDIEILSANGIPIYATQGKGGGISILEN
- soluble fraction (log2): -1.05

Sequence: HMTKYEGLSLDLIIDGVVITHNLKLAKLDMNWLLDRLKENGWDNPKDIFYAYIDTAGNFRFQPKLKASRTR
- soluble fraction (log2): 0.202

Sequence: HMTKYREVLRMSAGGFSQRVIASTLSISRNTVASTLKRAREQNLDWEAVEQQRLSEKDIANLLFP
- soluble fraction (log2): -0.996

Sequence: HMTLAEEFNNLNGKVITRETLESLLVKAEKEQNSTISNRIRKVLQAYTADTFLIELQHTESA
- soluble fraction (log2): 0.0776

Sequence: HMTLALKQGSTGSTVKQVQQKLKNWGYYSGAVDGIFGSGTRKAVVLFQKRNKLTADGIVGSKTLEALGIYV
- soluble fraction (log2): -1.05

Sequence: HMTLDDSIALGRSLLDKGLMDFGTNLANLAEDKLRDFLSQQRYENLDDLFADIARGNRLPMFTAQQLLS
- soluble fraction (log2): -0.187

Sequence: HMTLDVALSKEIKYMLKEEHYLPGDKLPSERKLAELFHVQRLTVRGALNLLLQDKTIISKPRSGYYVAPKR
- soluble fraction (log2): -3.1

Sequence: HMTLFDESGYTARELEIIREVANGLSNKEIADKLFLSEGTVKNYITGILAKENLSHRTALAVYYLTGRK
- soluble fraction (log2): 0.0583

Sequence: HMTLHEAMEKLFRQVGRPMTTKEIAEKLNENKWYQKADGSPLTPYQIYGRAKNYPALFHREGSIIYLKGS
- soluble fraction (log2): -0.41

Sequence: HMTLKTISLTEAIKNTNEGNYSKLVLDGNELTITEQGKETPSLKTYTEPGTSLKEQGFDLSKVEFEAREQS
- soluble fraction (log2): 0.152

Sequence: HMTLNQEELMGKTEAILFAGGEPVSLDRIAQVLGVRTPVIDSIVSALQEKYNTPTSGIQLMRL
- soluble fraction (log2): -0.143

Sequence: HMTLPELTDRELQILQLLSVGNSSQKIAKQLNISTHTVSTHRKQLLRKLGAQNGADLIRRAQKLGIL
- soluble fraction (log2): -0.44

Sequence: HMTLQEFYARVGGDYNATLSRLPSEALVKKFILKYPGDPSFAQLKDALAAQDWELAFRASHTLKGVAQN
- soluble fraction (log2): -1.3

Sequence: HMTLSAPMPGTVLKIHVKEGQRVRKGQTLVVLEAMKMEHRIQAPKAGEVTNLHFSEGDRVDMGEILVEIG
- soluble fraction (log2): 0.0894

Sequence: HMTLSDDEFEIIKSLIIDTLKEEALTINALTKKINHKEAKTIQVIRFLLDNGLVAENNLMKLFVI
- soluble fraction (log2): -0.821

Sequence: HMTLTIEDQLRRLRARLGRGRAFLFSDVLVNPHDRTEIAVTLLALLELIKRREAQASQSYLFGPIEVAAA
- soluble fraction (log2): -1.94

Sequence: HMTLTLEQAAAIKNSEGEQYGKIESERLAAMSVQIDKAIKSNGHDPNKKADLERKLDAIGIILNARAAG
- soluble fraction (log2): 0.122

Sequence: HMTLVKRSAMVTAWSEFAGGRVNSKLIALQNGKAGDWIELENPQSGRKLRGRVQSDGSVRLGS
- soluble fraction (log2): 0.169

Sequence: HMTLYITDQMRKILDYVATNQEIDEKAVMDLLSIQRTRAYLIAKKMTDIGLLQVQGRGKTKTYRLAARS
- soluble fraction (log2): -1.93

Sequence: HMTLYQIGDKVVHPMHGAGVIDSVVQRKVSGQVQEFYLLKLSVGNMVVMVPTDNTGEIGMRP
- soluble fraction (log2): -1.01

Sequence: HMTMEQAEFLSRQFNLLSQRLNDPSIEWQDIADLRSEYTGEDEHRDTIRKGAKLFYEYLEAGWIKN
- soluble fraction (log2): -0.581

Sequence: HMTMKNPNGYGSVINLGKGRRRPWAARVTTGLVYDEKKDKLIQRYKYIGYADTRKEAHQILAEYNAGLPI
- soluble fraction (log2): -1.43

Sequence: HMTMMTFGEKLQNARKGAGLSQEQLAEKLSVSRSAVAKWENDNGMPDIDNLKAIAQLLDVSIDYLLEN
- soluble fraction (log2): 0.133

Sequence: HMTMNLIEIGHVVGARRAELGLTQAQLAHLSGLSRQTVVGLEKGTLSDLGVNRVGQVMAVLGLDS
- soluble fraction (log2): -0.51

Sequence: HMTMPDFGYMRVSYAEARRQLQAIGISVSTIEKVEDPSHTSATGDMVISQYPAAGSKIEGTVTLYVSVAS
- soluble fraction (log2): -0.779

Sequence: HMTMSFSELLRGLRKSRGMSQAELATAVGLSQAQVSQIETGKLLPSPELIEKLAALYGIALGSA
- soluble fraction (log2): -0.139
